Publication PMC7797033, “Single-molecule visualization of human RECQ5 interactions with single-stranded DNA recombination intermediates”
Each block holds one molecule with its values, some of them ahead of it.

Assays:
[1] = target: Human wild-type (wt) RAD51 (human) (UniProt Q06609)
RAD51 = RAD51 (human, UniProt Q06609 1-339); assay: BLI; 2 mM ATP, 2 mM Mg2+; 2 uM RAD51; BLI: 25 mM Tris-HCl pH 7.5, 50 mM KCl, 2 mM MgCl2, 200 ug/mL BSA, 0.05% Tween 20, 2 mM ATP, room temperature; curtain buffer not in the material; details: protein: recombinant; tags: none stated for BLI prep; chain copies: 10; label: 5' biotin
Chain of RAD51 (Q06609 whole entry): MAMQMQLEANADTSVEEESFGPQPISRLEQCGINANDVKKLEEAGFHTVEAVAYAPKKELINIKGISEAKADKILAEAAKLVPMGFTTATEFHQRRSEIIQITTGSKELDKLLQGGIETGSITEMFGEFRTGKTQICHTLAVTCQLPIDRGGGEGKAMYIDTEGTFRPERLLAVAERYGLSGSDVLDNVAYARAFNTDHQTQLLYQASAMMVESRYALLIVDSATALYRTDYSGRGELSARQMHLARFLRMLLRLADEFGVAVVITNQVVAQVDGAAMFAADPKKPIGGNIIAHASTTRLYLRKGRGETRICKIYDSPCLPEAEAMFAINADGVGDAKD

Chain of Human wild-type (wt) RAD51 (human) (Q06609 whole entry): as above

- processivity of unlabeled RECQ5–F666A on RAD51–ssDNA (ssDNA curtains) [1]: 5200 nt
- translocation velocity of unlabeled RECQ5–F666A on RAD51–ssDNA (ssDNA curtains) [1]: 28 nt/s
Molecule: RECQ5–F666A (from UniProt O94762 1-991) (enzyme)

B1: dT43-mer (ssDNA)
DNA: TTTTTTTTTTTTTTTTTTTTTTTTTTTTTTTTTTTTTTTTTTT
- binding result (RAD51): binds
